Measurements from the domain aggregation screens of Martell et al. (2025).

Experiment: soluble fraction after stress (log2 fold change); higher = more stays soluble; pooled small domains, quantitative proteomics
Conditions: stress: pH 4
Outline: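 Custom libraries of small protein domains were pooled and measured with high-throughput quantitative proteomics after pH 4 stress. The read-out is the fold change in the amount of each domain that stays soluble after the acid stress, taken as a measure of aggregation propensity. Fold changes are on a log2 scale, and higher values mean more of the domain stayed soluble.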

| Sequence | soluble fraction (log2) |
| --- | --- |
| HMEKFTGELSQEEKNVLDALSHEEMHVDIIIKLTKLETSAVSSTLSLLEIKGLIKNIGGQNYIK | -0.139 |
| HMDGTAKVAHMLVNELETFNRLKKHEIAYMLHIQPETLSRILNKLTRNGTIEIEKNSVVILNIQELKEIY | -0.271 |
| HMNELVEATITTQTGRLDKVLTTIFPQYSRSQIQQLLEQGNILVNETLQKGKYKVKAGDKISLTEPAIKE | ≥ 0.43 |
| HMGNGDTNERIATLMQILAKQESIINQYGLENPVVSPQMYVRTLKKVVELSGFKDASSYFADIPDGWKA | 0.0699 |
| HMAKINFTSDAIDIGMVTRNDIEMLSFYQNVLGLTKDMEIPFPGLGVVNKLSFGSGFIKILVL | -0.272 |
| HMEHIVNELDRKVIDYLQSHYDAKLNDIAQGIGVSKATATKSIRKLVQTGIVHVVGSSGTGTSYNLTE | 0.0867 |
| HMNSNTIIINDIMTKIGKEVKNFTEIYSIILKALAEHGEEYVRTNTEYALKNFTGNFDIFLEQLLLK | -0.219 |
| HMHPVEPDDPDQHILFQHLRGQDQVHIDALIRLSGWTADKVSSTLLFMELQGLVKQLPGMYYALE | -1.07 |
| HMTVKNFNDLPGFKNENLAELKAMGITTISELAEALNDGGKIKEIIKNLSGVGPKTAEKWKDAIG | -0.173 |
| HMNLEIGAIIKSLRAKHKYTQEQLSAFLGVTPQAVSRWEAGNGYPDIELLPAIARFFEVSTDELLGL | -1.32 |
| HMADKSLLELPGLDGDKVSALVTAGVRNVNDLADLATDELVEKTGFDEKTAADLIIAARAVVY | -0.283 |
| HMKSAIKQNILLYLSNKGVTSYEFYKISGVTRGILQQSNGISEDNIAKFLAYAPDVNIEWLLTGKGDMLKH | -0.325 |
| HMLHVRSALMSELDGIEGIGEKRKRLLFDAFITRDAIAAATLEQLMAVKGMNRPSAEAVHKHFHG | 0.203 |
| HMEQVQQIPIEELFPFKEHPFKVLDDEAMQRTVESVAQYGVLAPLIARPRPEGGYEIISGHRRQHAAELYR | -0.445 |
| HMHPMVEAYLADLDRALSGSDPREHAETMSAVREHLADAIAPDATAEQVRHALDELGPVEAIAAG | -0.239 |
| HMLINPLDILRNFNLSLYDDSRDSASNKEIDEIFESIKTNNSHIFSTLKAYRIPLPIASLIIKKIIKITLE | -0.882 |
| HMNIIHNPSKNFIESDLNDLKEGMEIEHKKFGYGLIKSIDKTQNHQKAVVNFKLVGEKTLLLSFARLRIV | -0.519 |
| HMDGASLLDIDGDGKVTPTIDGLLLMRWQFGTRGAALIGGISFPAGALRTTVNAIELHMRRLSETT | -1.52 |
| HMVVADFQNYTVKPKENLYSLTKTSGLSQEELVALNPELKNGVQEGMVIKLPAAVKLMAQPE | 0.22 |
| HMNVDSLIGQTARVIVDINNNDSIGYALVGGQEWTARAENDNDIIPKDTLVEIVGVSGVKLIVRRKE | -0.0794 |
| HMNMKVGPVPANVVPANIKAHVSNNYSKYQIVQMMQNDKGYQVKLSNGTDLYYDKDGNILKTS | 0.0948 |
| HMDYYKILGLSTSATLDQIKKAFRQLAIEFHPDKNPNNPTAEDKFQRISEAYAVLSNPEKRAEYDRSY | -0.17 |
| HMTNVLSEQESKLLERMNKAGLNAEITVKKAAQILNLSESAARNVLNRLVGKGYLTVDTSRLPFLFQR | 0.122 |
| HMQVTGLTAENAHRVTMIREKGTDHPPVPFHFRKEHHGTGNYVHLYGNPEDRNELHSRDFKDWEAVAFK | 0.319 |
| HMRDSYEVEGRIASVSPAAGTFVVAGVTVDYTGARFVGGTVAQLAPGVKVEVEGRRLANGTLQAREIEFD | -0.12 |
| HMGQSKNERMLELVELLNKASRSYYQDAQEIMSNYEYDRLYDELQNLEKELGITLSNSPTVN | -1.3 |

| Sequence | soluble fraction (log2) |
| --- | --- |
| HMGAGLDDLVRKSLHNAGLKADDNVVSWISGNLGSDRMVSRMELEKLVLFVAGQSEITLEDAQAVIGD | -0.374 |
| HMREPDPELTASIKSMAESNDQSERLVALAQLSEQRAVDPEVADQILLIALLDEDPIIRGQAVYA | 0.0401 |
| HMIKVAANESNRSDVLEIVRLFRVRVVDVNPESLTIEATGAEGKIDALLGLLEHYGVIELVRSGAVAVT | -1.1 |
| HMGITDHIYQDLKKRLENGNYPAGTRFPSESTLADEFSVNKMTMNKIVSMLAEQGYLIRGNRGAGTRVAEN | -0.0244 |
| HMPQIDLYPFEVRIEQDNNAAEYAVRFLDVPNIIGSGASIDEAIVEARGNLKEYLDYLIDTNRDIPLPS | -1.43 |
| HMLDYQLQVFKDTLEANRKHRGQKIVFIHGKGEGVLRRALIHALNYQYKKFTYQDASFREYGYGATQVTI | -0.0148 |
| HMHYELTPDAEKQLSALGLTAELVERILEEANDRRPIPGTNRTVYSLHGYSVEFSNTNHKIVSVRKG | 0.343 |
| HMRKNVAGITPNVYGMGLKDAVYLLENAGYRVKVNGRGNVVRQSINSGTRIIKGQLIILDLD | 0.0848 |
| HMSVRPMVEILRVVGSPSPVWVTWARNRAAWLYETGIRPQQRLRMADGTEVLIRLVGEFAHILVVGG | 0.0642 |
| HMHTDQVLVMTRAVGQGEIVRNTDVGLTSVAVDRAVTTIPASQLDEIVGRHALVDLSAGQLLGSHSVGA | -0.0551 |
| HMSINISFEPADHLGKDVIFIRFPYDNEWIQRVRKLKGAKWSQSQRAWHVPDTEHYRTLFQLPQKI | -0.704 |
| HMTPQDYEYLRKLLKDQSGLDLSVDKQYLLESRLVPLSRKAGLAGIPELVQKMKAGSASLTAQVVEAMTT | 0.07 |
| HMESNWLTYAKRIQSIADTGMTFAVDDFDKERYQELADISSKMLADLSNIPIGRIENLLGPLGQ | -1.26 |
| HMGMEENLLKERKQILMDIMKSKEYQPMKVKELAMVLNVPKEDREELRYVLNELMNEGKIVESKKGKFSIA | 0.0605 |
| HMRTLSAGVAGRLRADILNGLLEPGRRLGMAELTERYGAGMSPVREALSRLVGEGLVQSEGQRGFRVA | 0.199 |
| HMNSTGVYQRPDGFWEYRFTLSINGKKLPRRKSTDLMGNKLKTKREAIKAREEAIIALRTEKTI | 0.4 |
| HMPEFKDMLKFFRMREHLSQSELAEKLGISASTVSMYEVGRRQPDFETEEKIADFFNTDLNTLRG | -0.169 |
| HMSDYLGSLSHEEKMIFNHFDEDSSTIENMAKKTELKPELISQIFLNLELRGFLRQTEGGLYEKI | -1.13 |
| HMSNWYKNNETDQIWWKDTPDSVGEWLFSFDKKQVFNMFADYPHNLTPEQKKIFDEENPEWSDRP | -0.981 |
| HMFLTPLEETRLAIEEVVIAKNIAIDLFPRESAIRKQQHELIYHYHLKGLTVGTEKNKRLRIFPRGY | -0.52 |
| HMSYIGEEKAKSIAVSNVKGAGTNNVVKVEFDYDDGRAVYEVKVVYNAMEYEFEIDASNGKILSRDAESIY | -0.027 |
| HMLSSREEKILNYLNEHQIITRKKAQELLETSQSTAGRVLKIMVDNGLIVQYGGSRSIWYELIK | -0.269 |
| HMGYDVAEVKFRLIKLLRDSKIGISGVEISERLGINRVTMTKYLNIFSAEGVIGEKNIGNVNLWFVYEGIE | -0.186 |
| HMLLSEPSVLKFNDDNSYEIVSGFLTEYKDKIVKIERRYKKATVKITVAGEEKEIKVSFVEDTE | -1.13 |
| HMLLNPFERLTERELEIADLYAKGYGNLEIANFLSIKQNTVSTYKKRIFEKLGIDNLVELIELIKNY | -0.839 |
| HMKKTVTDSVELLTFLKDIFTNTSTNKLRKMLTTGRVTVNNIVIHKAKHILVQNDVVEIGDK | -0.0253 |

| Sequence | soluble fraction (log2) |
| --- | --- |
| HMKSLLDQINGIGAIRKRALLNHFGSARAVESASLDEIKSVEGVEAKVAKKIYNFFHEYKNMLR | 0.0807 |
| HMASISDRIRLLRAESHMTQEEFGRIFGISKPTVSFYEHGKSVPNDQIKTAIARYFGVSVDYLLGVTD | -0.467 |
| HMEPMLEIFDAKIDLADVLAVESGLVRLRGGAEVTSPRVDVDAGARLELDSGARLNVERLSY | -0.823 |
| HMRDPVDKDNYLGDWDKNKTYPAGYVMTFGDKNYLALQEVPAGTKPGATDPDPFWVLDTGKTLKD | 0.163 |
| HMDALTLSIDAQGALYWNGQPVSRELAAQRFVEAAAQRPQPELHLRADQNVAYRHVAMTLADASRAGLTR | -0.632 |
| HMVELGMSQNEFIQKFGKPFNKEMAYTYDKHKRETLFYKEDLYRGSWFIVTTAFTFVDSKLVSQEIVREER | -0.349 |
| HMDYNYLVFVTNTGPRSIAVEDLEMTVSDGKLVVSSGADGETFDLSTLTKMYFSDAAVVSINDV | -1.14 |
| HMTGVEAIERYLASGVIPGVGPVLAKRLVERFGARTLEVIEDSPRRLTQVPGIGRQKARQIHQALKAQRE | 0.0508 |
| HMVGIAEAMKHIADEDYGDLSAIFKQIFSDTDGGRNFSDAIRTQMRSTDSSGLRKVLSTLIMSIEE | -0.854 |
| HMKLTALWTANPKISAPIYSEPSTQSKTLGRIYQGASVKVYSFDPEWAYINSSGVVGYVLRRHLE | 0.326 |
| HMNTSSVTVHYQDEAGKSLADTVTLTGKVGETYSSEQKKITGYNFKEVRGNPKGQFTTEAQTVTYVYTQAA | -0.195 |
| HMNKELVVPDLTDMRVKDAEFEAHQVGMRTEIVDSVYVRRLKRGYVYKQNPVPGSKVKKGRRIALTINAV | 0.1 |
| HMHLPDNAVSIISELKMTPEEVLELIGKLPHDFLFLPYSQRKKIIVDLIPNKDYKLLMSLIKKFML | -0.536 |
| HMGQISDESVLKEMVVQLIADNPKEVASYLGGKETLLQWFMGQVARATKGKADPQAVKQLLLDEFEKLK | -0.504 |
| HMDTITDSYTLEKGKLRAKVMEYELPESKKKEYSATFEYRGVYYHMIGIIEKADFEEILKNLHFP | -0.53 |
| HMRSVEVAAEPGMVLEDRQTGFVGAVVAVEKSGGTHLVVLEDRHGLRRGFPLGPGFWLEGRPVVLAPPP | -0.141 |
| HMVEDIVLTDAQIEFVKQQAKNGLSAFQISEMIWPEMSVKRFSKQHVAVLDFLREYEPAYVHDSE | -1.85 |
| HMEITTEDIAAQVASWIVRLSEDLTSTDRAALQIEFEQWQQTDSRRAEIAHKMLSLIGQAEQLRKT | -0.614 |
| HMNPETLTNGSVVKMSKANLSDELIIDMINNSPARFDLSSGALRSLEGEGVSKAVIESMKRATSG | 0.0233 |
| HMPLLSEWDAALEELWAKLGDVPMDPETERMDAPFLGFPAGTPREDIWHWFDERHSKGVAHLLYG | -1.78 |
| HMKSVQIPQSITVKEFSQAIEVSVADVIKKLMSMGVMVSQNKEINVDTAILVGEEFGVTVNVA | -0.0481 |
| HMEDTSTLSIKHKIKELINQESPQAILSDDKLVELLAAQGIKIARRTIAKYRETMNIPTSAERKRQKRPP | 0.275 |
| HMKLHPRDQERTRAISARGERLYAVTVGDLRRRIGEMLEWFGRQIESQEPMRVAKAARRITDFFDQVEAFT | -2.15 |
| HMKNETFAITSEDAGKRLDVWLTNILGDYSRSYVERLVEQGNVTVGGKTVKAGYKLKAGDSVQVSIPGPK | 0.0982 |
